According to publication PMC6251713 (Immunity, 2018):
Changes are numbered by the printed parent chain. Names may count otherwise.

T1: maltose binding protein (MBP)-tagged IFIT1 (human, UniProt P09914-1 1-478)
T1 sequence (looked up): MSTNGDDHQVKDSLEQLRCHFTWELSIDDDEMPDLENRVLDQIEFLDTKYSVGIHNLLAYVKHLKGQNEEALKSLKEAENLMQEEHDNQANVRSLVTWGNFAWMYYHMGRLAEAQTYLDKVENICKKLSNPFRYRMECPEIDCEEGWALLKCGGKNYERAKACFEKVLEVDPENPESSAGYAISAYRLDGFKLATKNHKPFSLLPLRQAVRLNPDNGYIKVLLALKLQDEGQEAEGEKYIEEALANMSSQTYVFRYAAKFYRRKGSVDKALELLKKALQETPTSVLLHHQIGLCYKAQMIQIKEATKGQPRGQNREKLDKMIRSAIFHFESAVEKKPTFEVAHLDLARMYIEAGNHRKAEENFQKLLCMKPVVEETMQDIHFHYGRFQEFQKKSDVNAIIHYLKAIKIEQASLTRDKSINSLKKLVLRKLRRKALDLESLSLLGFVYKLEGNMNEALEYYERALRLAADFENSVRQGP

B1: IFIT3 403–490 (IFIT3CTD) (domain or fragment, human, UniProt O14879 403-490, looked up)
chain: QNVSENLLPQNAPNYWYLQGLIHKQNGDLLQAAKCYEKELGRLLRDAPSGIGSIFLSASELEDGSEEMGQGAVSSSPRELLSNSEQLN
B2: IFIT1 RNA binding mutant (R38A and K151A) (natural protein, human, UniProt P09914-1 1-478, looked up)
chain: T1 sequence (looked up) with R38A, K151A
B3: chimeric construct Ifit3-IFIT3CTD (other, mouse | human, UniProt Q64345 1-403, looked up)
chain: MSEVNRESLEAILPQLKCHFTWNLFREGSMSSHMEDRVCNQVEHLNSEEKATMYDLLAYIKHLDGESKAALECLGQAEDLRKSEHNDQSEIRRLVTWGNYAWIYYHMGRLSEAQAYVDKVRQVCQKFANPYSMECPELECEEGWTRLKCGRNERAKMCFEKALEEKPKDPECSSGMAIAMFRLEEKPEKQFSVDALKQAMELNPQNQYLKVLLALKLLRMGEEAEGERLIKDALGKAPNQTDVLQKAAQFYKKKGNLDRAIELLGKALRSTVNNSPLYSLVMCRYREILEQLQNKGDADSSERRQRMAELRRLTMEFMQKTLQRRRSPLNSYSDLIDFPEVERCYQMVISKESPDVEEEDLYERYCNLQEYHRKSEDLAALECLLQFPRNERSIEKEEVKEQTQNVSENLLPQNAPNYWYLQGLIHKQNGDLLQAAKCYEKELGRLLRDAPSGIGSIFLSASELEDGSEEMGQGAVSSSPRELLSNSEQLN
B4: human IFIT1 (natural protein, UniProt P09914-1 1-478, looked up)
chain: T1 sequence (looked up)
B5: human IFIT3 (natural protein, UniProt O14879 1-490, looked up)
chain: MSEVTKNSLEKILPQLKCHFTWNLFKEDSVSRDLEDRVCNQIEFLNTEFKATMYNLLAYIKHLDGNNEAALECLRQAEELIQQEHADQAEIRSLVTWGNYAWVYYHLGRLSDAQIYVDKVKQTCKKFSNPYSIEYSELDCEEGWTQLKCGRNERAKVCFEKALEEKPNNPEFSSGLAIAMYHLDNHPEKQFSTDVLKQAIELSPDNQYVKVLLGLKLQKMNKEAEGEQFVEEALEKSPCQTDVLRSAAKFYRRKGDLDKAIELFQRVLESTPNNGYLYHQIGCCYKAKVRQMQNTGESEASGNKEMIEALKQYAMDYSNKALEKGLNPLNAYSDLAEFLETECYQTPFNKEVPDAEKQQSHQRYCNLQKYNGKSEDTAVQHGLEGLSISKKSTDKEEIKDQPQNVSENLLPQNAPNYWYLQGLIHKQNGDLLQAAKCYEKELGRLLRDAPSGIGSIFLSASELEDGSEEMGQGAVSSSPRELLSNSEQLN

Legend:
human IFIT1 = molecular target: B4; test: ITC
human IFIT3 = molecular target: B5; test: ITC
[1] = molecular target: T1, maltose binding protein (MBP)-tagged …; test: pull-down

Binder	dH (human IFIT1) [kcal/mol]	stoichiometry N (human IFIT1)	Kd (human IFIT3) [nM]	also measured
B1	-17	0.97 ± 0.03		Kd (human IFIT1): 1.4 ± 3.1 nM
B2			2.1 ± 6	
B3				binding result [1]: binds
B4			1.5 ± 2	
B5	-13	0.93 ± 0.01		
